# Positions count from the first letter of the chain named. In names and notes the source's numbering stands.
# T1: Human CD3eg linker (human)
# T1 construct: Single-chain construct; also called recombinant human CD3
# T1 chain: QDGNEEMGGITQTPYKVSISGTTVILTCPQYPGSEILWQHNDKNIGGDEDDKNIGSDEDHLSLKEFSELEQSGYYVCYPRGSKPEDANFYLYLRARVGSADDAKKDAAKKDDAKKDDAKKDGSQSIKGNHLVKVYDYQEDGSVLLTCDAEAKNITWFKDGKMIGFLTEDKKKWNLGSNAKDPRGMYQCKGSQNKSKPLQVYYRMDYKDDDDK
# B1: H183/L072 VL L27bA (antibody, name in Kabat numbering, V domains shown)
# VH: QVQLVESGGGLVQPGRSLRLSCAASGFTFSNAWMHWVRQAPGKGLEWVAQIKDKGNAYAAYYAPSVKGRFTISRDDSKNSIYLQMNSLKTEDTAVYYCHYVHYASASTVLPAFGVDAWGQGTTVTVSS
# VL: DIVMTQSPLSLPVTPGEPASISCQASQEAVHMNRNTYLHWYQQKPGQAPRLLIYKVSNRFPGVPDRFSGSGSGTDFTLKISRVEAEDVGVYYCAQGTSVPFTFGQGTKLEIK
# B2: H183/L072 VL M27eE (antibody, name in Kabat numbering, V domains shown)
# VH: B1 VH
# VL: B1 VL with A29L, M32E
# B3: H183/L072 VL L27bT (antibody, name in Kabat numbering, V domains shown)
# VH: B1 VH
# VL: B1 VL with A29T
# B4: H183/L072 VL L27bF (antibody, name in Kabat numbering, V domains shown)
# VH: B1 VH
# VL: B1 VL with A29F
# B5: H183/L072 VL L33S (antibody, name in Kabat numbering, V domains shown)
# VH: B1 VH
# VL: B1 VL with A29L, L38S
# B6: H183/L072 VL L33V (antibody, name in Kabat numbering, V domains shown)
# VH: B1 VH
# VL: B1 VL with A29L, L38V
# B7: H183/L072 VL L27bK (antibody, name in Kabat numbering, V domains shown)
# VH: B1 VH
# VL: B1 VL with A29K
# B8: H183/L072 VL L33D (antibody, name in Kabat numbering, V domains shown)
# VH: B1 VH
# VL: B1 VL with A29L, L38D
# B9: H183/L072 VL L33E (antibody, name in Kabat numbering, V domains shown)
# VH: B1 VH
# VL: B1 VL with A29L, L38E
# B10: H183/L072 VL L27bE (antibody, name in Kabat numbering, V domains shown)
# VH: B1 VH
# VL: B1 VL with A29E
# B11: H183/L072 VL M27eD (antibody, name in Kabat numbering, V domains shown)
# VH: B1 VH
# VL: B1 VL with A29L, M32D
# B12: H183/L072 VL L33T (antibody, name in Kabat numbering, V domains shown)
# VH: B1 VH
# VL: B1 VL with A29L, L38T
# B13: H183/L072 VL M27eA (antibody, name in Kabat numbering, V domains shown)
# VH: B1 VH
# VL: B1 VL with A29L, M32A
# B14: H183/L072 VL L27bV (antibody, name in Kabat numbering, V domains shown)
# VH: B1 VH
# VL: B1 VL with A29V
# B15: H183/L072 VL L27bH (antibody, name in Kabat numbering, V domains shown)
# VH: B1 VH
# VL: B1 VL with A29H
# B16: H183/L072 VL M27eS (antibody, name in Kabat numbering, V domains shown)
# VH: B1 VH
# VL: B1 VL with A29L, M32S
# B17: H183/L072 VL L27bM (antibody, name in Kabat numbering, V domains shown)
# VH: B1 VH
# VL: B1 VL with A29M
# B18: H183/L072 VL M27eN (antibody, name in Kabat numbering, V domains shown)
# VH: B1 VH
# VL: B1 VL with A29L, M32N
# B19: H183/L072 VL L33H (antibody, name in Kabat numbering, V domains shown)
# VH: B1 VH
# VL: B1 VL with A29L, L38H
# B20: H183/L072 VL L27bQ (antibody, name in Kabat numbering, V domains shown)
# VH: B1 VH
# VL: B1 VL with A29Q
# B21: H183/L072 VL L27bP (antibody, name in Kabat numbering, V domains shown)
# VH: B1 VH
# VL: B1 VL with A29P
# B22: H183/L072 VL L33K (antibody, name in Kabat numbering, V domains shown)
# VH: B1 VH
# VL: B1 VL with A29L, L38K
# B23: H183/L072 VL M27eL (antibody, name in Kabat numbering, V domains shown)
# VH: B1 VH
# VL: B1 VL with A29L, M32L
# B24: H183/L072 VL M27eQ (antibody, name in Kabat numbering, V domains shown)
# VH: B1 VH
# VL: B1 VL with A29L, M32Q
# B25: H183/L072 VL L27bD (antibody, name in Kabat numbering, V domains shown)
# VH: B1 VH
# VL: B1 VL with A29D
# B26: H183/L072 VL L33F (antibody, name in Kabat numbering, V domains shown)
# VH: B1 VH
# VL: B1 VL with A29L, L38F
# B27: H183/L072 VL M27eK (antibody, name in Kabat numbering, V domains shown)
# VH: B1 VH
# VL: B1 VL with A29L, M32K
# B28: H183/L072 VL M27eP (antibody, name in Kabat numbering, V domains shown)
# VH: B1 VH
# VL: B1 VL with A29L, M32P
# B29: H183/L072 VL M27eI (antibody, name in Kabat numbering, V domains shown)
# VH: B1 VH
# VL: B1 VL with A29L, M32I
# B30: H183/L072 VL M27eH (antibody, name in Kabat numbering, V domains shown)
# VH: B1 VH
# VL: B1 VL with A29L, M32H
# B31: H183/L072 VL L33Q (antibody, name in Kabat numbering, V domains shown)
# VH: B1 VH
# VL: B1 VL with A29L, L38Q
# B32: H183/L072 VL L33A (antibody, name in Kabat numbering, V domains shown)
# VH: B1 VH
# VL: B1 VL with A29L, L38A
# B33: H183/L072 VL L33N (antibody, name in Kabat numbering, V domains shown)
# VH: B1 VH
# VL: B1 VL with A29L, L38N
# B34: H183/L072 VL M27eR (antibody, name in Kabat numbering, V domains shown)
# VH: B1 VH
# VL: B1 VL with A29L, M32R
# B35: H183/L072 VL M27eG (antibody, name in Kabat numbering, V domains shown)
# VH: B1 VH
# VL: B1 VL with A29L, M32G
# B36: H183/L072 VL L27bN (antibody, name in Kabat numbering, V domains shown)
# VH: B1 VH
# VL: B1 VL with A29N
# B37: H183/L072 VL L33G (antibody, name in Kabat numbering, V domains shown)
# VH: B1 VH
# VL: B1 VL with A29L, L38G
# B38: H183/L072 VL L27bS (antibody, name in Kabat numbering, V domains shown)
# VH: B1 VH
# VL: B1 VL with A29S
# B39: H183/L072 VL M27eT (antibody, name in Kabat numbering, V domains shown)
# VH: B1 VH
# VL: B1 VL with A29L, M32T
# B40: H183/L072 VL L27bI (antibody, name in Kabat numbering, V domains shown)
# VH: B1 VH
# VL: B1 VL with A29I
# B41: H183/L072 VL L33M (antibody, name in Kabat numbering, V domains shown)
# VH: B1 VH
# VL: B1 VL with A29L, L38M
# B42: H183/L072 VL M27eF (antibody, name in Kabat numbering, V domains shown)
# VH: B1 VH
# VL: B1 VL with A29L, M32F
# Molecular target: T1, Human CD3eg linker
# Assay: SPR; fold vs parent H183/L072
row,Binder,fold change of affinity [fold]
1,B1,0.7
2,B2,1
3,B3,0.6
4,B4,0.3
5,B5,0
6,B6,0.4
7,B7,0
8,B8,0
9,B9,0
10,B10,0
11,B11,0.8
12,B12,0.3
13,B13,1.3
14,B14,1.7
15,B15,0
16,B16,1.2
17,B17,0.7
18,B18,0.9
19,B19,1.4
20,B20,0
21,B21,1.8

row,Binder,fold change of affinity [fold]
1,B22,0
2,B23,1
3,B24,1.1
4,B25,0
5,B26,1.1
6,B27,1.4
7,B28,1.2
8,B29,0.9
9,B30,0.9
10,B31,1.7
11,B32,0.6
12,B33,0
13,B34,1.4
14,B35,0.9
15,B36,0
16,B37,0
17,B38,0
18,B39,1.2
19,B40,0.5
20,B41,1.1
21,B42,0.9
